Experimental data as given in publication PMC9643514, “Regulation of BRCA1 stability through the tandem UBX domains of isoleucyl-tRNA synthetase 1” (Nature Communications, 2022).

B1: BRCT domain (residues 1645–1863) of BRCA1 (domain or fragment, UniProt P38398 1645-1863, looked up)
chain: RVNKRMSMVVSGLTPEEFMLVYKFARKHHITLTNLITEETTHVVMKTDAEFVCERTLKYFLGIAGGKWVVSYFWVTQSIKERKMLNEHDFEVRGDVVNGRNHQGPKRARESQDRKIFRGLEICCYGPFTNMPTDQLEWMVQLCGASVVKELSSFTLGTGVHPIVVVQPDAWTEDNGFHAIGQMCEAPVVTREWVLDSVALYQCQELDTYLIPQIPHSHY
notes: BRCA1 BRCT domain, residues 1645-1863; also called BRCA1 BRCT
B2: heterodimeric RING (BRCA1 residues 1–304)-RING (BARD1 residues 26–142) domains of the BRCA1-BARD1 complex (complex)
chain 1: MDLSALRVEEVQNVINAMQKILECPICLELIKEPVSTKCDHIFCKFCMLKLLNQKKGPSQCPLCKNDITKRSLQESTRFSQLVEELLKIICAFQLDTGLEYANSYNFAKKENNSPEHLKDEVSIIQSMGYRNRAKRLLQSEPENPSLQETSLSVQLSNLGTVRTLRTKQRIQPQKTSVYIELGSDSSEDTVNKATYCSVGDQELLQITPQGTRDEISLDSAKKAACEFSETDVTNTEHHQPSNNDLNTTEKRAAERHPEKYQGSSVSNLHVEPCGTNTHASSLQHENSSLLLTKDRMNVEKAEF
chain 2: MEPDGRGAWAHSRAALDRLEKLLRCSRCTNILREPVCLGGCEHIFCSNCVSDCIGTGCPVCYTPAWIQDLKINRQLDSMIQLCSKLRNLLHDNELSDLKEDKPRKSLFNDAGNKKNS
notes: also called RING-RING domains; source: expressed and purified as the BRCA1-BARD1 complex
B3: GST-EARS1 without the WHEP motifs (human EPRS1 residues 1−706) (domain or fragment, UniProt P07814 1-706, looked up)
chain: MATLSLTVNSGDPPLGALLAVEHVKDDVSISVEEGKENILHVSENVIFTDVNSILRYLARVATTAGLYGSNLMEHTEIDHWLEFSATKLSSCDSFTSTINELNHCLSLRTYLVGNSLSLADLCVWATLKGNAAWQEQLKQKKAPVHVKRWFGFLEAQQAFQSVGTKWDVSTTKARVAPEKKQDVGKFVELPGAEMGKVTVRFPPEASGYLHIGHAKAALLNQHYQVNFKGKLIMRFDDTNPEKEKEDFEKVILEDVAMLHIKPDQFTYTSDHFETIMKYAEKLIQEGKAYVDDTPAEQMKAEREQRIDSKHRKNPIEKNLQMWEEMKKGSQFGQSCCLRAKIDMSSNNGCMRDPTLYRCKIQPHPRTGNKYNVYPTYDFACPIVDSIEGVTHALRTTEYHDRDEQFYWIIEALGIRKPYIWEYSRLNLNNTVLSKRKLTWFVNEGLVDGWDDPRFPTVRGVLRRGMTVEGLKQFIAAQGSSRSVVNMEWDKIWAFNKKVIDPVAPRYVALLKKEVIPVNVPEAQEEMKEVAKHPKNPEVGLKPVWYSPKVFIEGADAETFSEGEMVTFINWGNLNITKIHKNADGKIISLDAKLNLENKDYKKTTKVTWLAETTHALPIPVICVTYEHLITKPVLGKDEDFKQYVNKNSKHEELMLGDPCLKDLKKGDIIQLQRRGFFICDQPYEPVSPYSCKEAPCVLIYIPDGH
notes: human EPRS1, EARS1 part without the three WHEP motifs, residues 1-706; pGEX4T3 vector; source: E. coli Rosetta (DE3), purified (GST column, gel filtration)
B4: GST-EARS1 with three WHEP motifs (human EPRS1 residues 1–1015) (domain or fragment, UniProt P07814 1-1015, looked up)
chain: MATLSLTVNSGDPPLGALLAVEHVKDDVSISVEEGKENILHVSENVIFTDVNSILRYLARVATTAGLYGSNLMEHTEIDHWLEFSATKLSSCDSFTSTINELNHCLSLRTYLVGNSLSLADLCVWATLKGNAAWQEQLKQKKAPVHVKRWFGFLEAQQAFQSVGTKWDVSTTKARVAPEKKQDVGKFVELPGAEMGKVTVRFPPEASGYLHIGHAKAALLNQHYQVNFKGKLIMRFDDTNPEKEKEDFEKVILEDVAMLHIKPDQFTYTSDHFETIMKYAEKLIQEGKAYVDDTPAEQMKAEREQRIDSKHRKNPIEKNLQMWEEMKKGSQFGQSCCLRAKIDMSSNNGCMRDPTLYRCKIQPHPRTGNKYNVYPTYDFACPIVDSIEGVTHALRTTEYHDRDEQFYWIIEALGIRKPYIWEYSRLNLNNTVLSKRKLTWFVNEGLVDGWDDPRFPTVRGVLRRGMTVEGLKQFIAAQGSSRSVVNMEWDKIWAFNKKVIDPVAPRYVALLKKEVIPVNVPEAQEEMKEVAKHPKNPEVGLKPVWYSPKVFIEGADAETFSEGEMVTFINWGNLNITKIHKNADGKIISLDAKLNLENKDYKKTTKVTWLAETTHALPIPVICVTYEHLITKPVLGKDEDFKQYVNKNSKHEELMLGDPCLKDLKKGDIIQLQRRGFFICDQPYEPVSPYSCKEAPCVLIYIPDGHTKEMPTSGSKEKTKVEATKNETSAPFKERPTPSLNNNCTTSEDSLVLYNRVAVQGDVVRELKAKKAPKEDVDAAVKQLLSLKAEYKEKTGQEYKPGNPPAEIGQNISSNSSASILESKSLYDEVAAQGEVVRKLKAEKSPKAKINEAVECLLSLKAQYKEKTGKEYIPGQPPLSQSSDSSPTRNSEPAGLETPEAKVLFDKVASQGEVVRKLKTEKAPKDQVDIAVQELLQLKAQYKSLIGVEYKPVSATGAEDKDKKKKEKENKSEKQNKPQKQNDGQRKDPSKNQGGGLSSSGAGEGQGPKKQTRLG
notes: pGEX4T3 vector; source: E. coli Rosetta (DE3), purified (GST column, gel filtration)

How the values were obtained:
[1] = target: T1, His-IARS1, full-length human IARS1 (residues 1−1262) (human, UniProt P41252 1-1262); test: pull-down; in vitro pull-down of IARS1 with fragments of the BRCA1-BARD1 complex; conditions: both partners purified
T1 construct: pFASTbacHTb vector; also called purified IARS1; full-length IARS1; source: Sf9, purified (Ni2+ column, IEX, SEC); not shown: His6, N-terminal, kept
T1 sequence (looked up): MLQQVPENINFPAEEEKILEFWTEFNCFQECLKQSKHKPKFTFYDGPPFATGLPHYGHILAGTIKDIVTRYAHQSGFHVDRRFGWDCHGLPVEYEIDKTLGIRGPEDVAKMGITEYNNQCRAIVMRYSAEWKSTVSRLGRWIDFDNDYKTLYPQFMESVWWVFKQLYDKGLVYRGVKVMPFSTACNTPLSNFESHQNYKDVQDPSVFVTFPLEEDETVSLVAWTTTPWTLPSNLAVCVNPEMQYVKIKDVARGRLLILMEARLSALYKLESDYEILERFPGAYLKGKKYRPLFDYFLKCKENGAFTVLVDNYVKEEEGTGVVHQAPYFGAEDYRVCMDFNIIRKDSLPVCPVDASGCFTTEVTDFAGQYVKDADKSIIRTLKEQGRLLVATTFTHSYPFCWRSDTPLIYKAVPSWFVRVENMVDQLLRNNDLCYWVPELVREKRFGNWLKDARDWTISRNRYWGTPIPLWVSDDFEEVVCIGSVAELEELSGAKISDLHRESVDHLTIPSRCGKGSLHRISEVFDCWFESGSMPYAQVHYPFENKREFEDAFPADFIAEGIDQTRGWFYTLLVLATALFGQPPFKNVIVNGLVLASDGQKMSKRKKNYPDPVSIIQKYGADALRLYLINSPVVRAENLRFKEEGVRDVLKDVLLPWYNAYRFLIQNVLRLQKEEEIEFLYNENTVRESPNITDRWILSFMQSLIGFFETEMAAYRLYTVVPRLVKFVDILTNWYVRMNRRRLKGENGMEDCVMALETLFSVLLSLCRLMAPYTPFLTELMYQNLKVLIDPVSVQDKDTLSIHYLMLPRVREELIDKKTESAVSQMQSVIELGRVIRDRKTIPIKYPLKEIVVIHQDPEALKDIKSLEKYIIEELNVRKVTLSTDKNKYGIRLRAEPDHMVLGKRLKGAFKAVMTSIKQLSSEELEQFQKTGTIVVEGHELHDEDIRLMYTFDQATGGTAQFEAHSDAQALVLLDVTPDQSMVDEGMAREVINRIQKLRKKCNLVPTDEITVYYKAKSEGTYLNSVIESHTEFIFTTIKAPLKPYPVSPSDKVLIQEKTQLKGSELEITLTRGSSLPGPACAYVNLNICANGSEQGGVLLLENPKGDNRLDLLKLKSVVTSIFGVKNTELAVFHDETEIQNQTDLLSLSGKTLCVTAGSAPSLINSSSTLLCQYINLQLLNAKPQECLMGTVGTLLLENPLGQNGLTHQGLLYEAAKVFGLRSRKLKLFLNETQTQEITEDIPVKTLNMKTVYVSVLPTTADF

[2] = target: T1, His-IARS1, full-length human IARS1 …; test: pull-down; human His-IARS1 or IARS1ΔUBX2 mixed with human GST-EARS1 at 1:1.5, 30 min at 4 °C, Ni-sepharose beads 2 hr at 4 °C, eluted with 250 mM imidazole in His A buffer (20 mM Tris-HCl pH 7.4, 300 mM NaCl, 7 mM 2-mercaptoethanol, 5% glycerol), SDS-PAGE and Coomassie; conditions: both partners purified

Binder	binding result [1]	binding result [2]
B1	binds	
B2	binds	
B3		binds
B4		binds
